± gives the standard deviation of the averaged measurements.
B1: library; a variant is named by its letters at N, in order (parent)
chain: GCUGUCACCGGUGUAUUACCCUAGUGGUCGACCGGUCUGAUGAGUCUNNNNNNAGACGAAACAGC

Legend:
hypoxanthine [1] = variants of: B1; assay: FACS-Seq fitted mean relative fluorescence mCherry/BFP without ligand (log10 relative fluorescence); ligand: hypoxanthine (xanthine aptamer); higher = higher reporter protein expression; conditions: HEK293T, ligand present: no
Outline: (§1)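 HEK293T libraries were lentivirally transduced with an mCherry reporter carrying the ribozyme switch and an EF1α-BFP marker, enriched, and incubated for 48 h with or without ligand before sorting into 6 bins by mCherry/BFP. Genomic DNA from each bin was PCR-amplified, barcoded and sequenced on MiSeq. Fluorescence is the fitted normal mean of the bin counts. The fit used log10(mCherry/BFP), and means were scaled to five spiked-in control ribozymes.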

hypoxanthine [2] = variants of: B1; assay: normalized RNA/DNA level with ligand (relative to sTRSVctl = 100) (log10 (% of sTRSVctl)); ligand: hypoxanthine (xanthine aptamer); higher = less ribozyme self-cleavage, higher mRNA level; conditions: ligand concentration (+) RNA-Seq: 5 mM, HEK293T, reporter: mCherry (pCS4076), ligand present: yes
Outline: (§2)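 HEK293T cells received ligand, where used, 1 h before being transfected with 4 µg per 6-well well of library plasmids encoding reporter-linked ribozyme switches. After 72 h, RNA was extracted with EDTA and sequenced. RNA level was derived from RNA reads per DNA read, normalized to a spiked-in non-cleaving sequence or the top sequences, then scaled and log-transformed. Values were ×100 then log10, the top set was 25 sequences, and the minimum was 100 DNA reads.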

hypoxanthine [3] = variants of: B1; assay: normalized RNA/DNA level without ligand (relative to sTRSVctl = 100) (log10 (% of sTRSVctl)); ligand: hypoxanthine (xanthine aptamer); higher = less ribozyme self-cleavage, higher mRNA level; conditions: HEK293T, reporter: mCherry (pCS4076), ligand present: no
Outline: as §2

hypoxanthine [4] = variants of: B1; assay: FACS-Seq fitted mean relative fluorescence mCherry/BFP with ligand (log10 relative fluorescence); ligand: hypoxanthine (xanthine aptamer); ligand concentration (+) FACS-Seq: 5 mM; higher = higher reporter protein expression; conditions: HEK293T, ligand present: yes
Outline: as §1

| Variant | FACS-Seq fitted mean (log10) (hypoxanthine [1]) | normalized RNA/DNA level with ligand (log10) (hypoxanthine [2]) | normalized RNA/DNA level without ligand (log10) (hypoxanthine [3]) | FACS-Seq fitted mean (log10) (hypoxanthine [4]) |
| --- | --- | --- | --- | --- |
| GUGCAA | 0.274 ± 0.033 | 1.904 ± 0.0021 | 1.69 ± 0.037 | 0.57 ± 0.059 |
| GUGCAG | 0.0446 ± 0.026 | 1.739 ± 0.0069 | 1.3 ± 0.099 | 0.427 ± 0.039 |
| GUGCAU | -0.413 ± 0.2 | 1.91 ± 0.038 | 1.74 ± 0.018 | -0.852 ± 0.077 |
| GUGCAC | 0.5159 ± 0.0044 | 1.87 ± 0.046 | 1.672 ± 0.0021 | 0.536 ± 0.016 |
| GUCUAG | 0.584 ± 0.051 | 1.87 ± 0.053 | 1.53 ± 0.044 | 0.604 ± 0.11 |
| GUCUAA | 0.326 ± 0.054 | 1.94 ± 0.048 | 1.801 ± 0.0053 | 0.458 ± 0.0071 |
| AUCUGA | 0.724 ± 0.047 | 1.96 ± 0.049 | 1.83 ± 0.045 | 0.684 ± 0.016 |
| AUCUGG | 0.338 ± 0.0078 | 1.84 ± 0.023 | 1.426 ± 0.0099 | 0.609 ± 0.05 |
| UUGACA | 0.459 ± 0.015 | 1.95 ± 0.046 | 1.87 ± 0.026 | 0.491 ± 0.048 |
| UUGACG | 0.486 ± 0.025 | 1.93 ± 0.057 | 1.831 ± 0.0085 | 0.5104 ± 0.00062 |
| GUGCUG | 0.44 ± 0.068 | 1.914 ± 0.019 | 1.58 ± 0.025 | 0.542 ± 0.054 |
| AUGGAA | 0.751 ± 0.027 | 1.88 ± 0.044 | 1.65 ± 0.043 | 0.749 ± 0.042 |
| AUGGAC | 0.677 ± 0.01 | 1.8884 ± 0.00037 | 1.68 ± 0.028 | 0.843 ± 0.058 |
| AUGGAG | 0.0698 ± 0.0056 | 1.71 ± 0.037 | 1.208 ± 0.011 | 0.604 ± 0.023 |
| CUGAAA | 0.56 ± 0.015 | 1.93 ± 0.027 | 1.74 ± 0.018 | 0.587 ± 0.036 |
| CUGAAG | 0.454 ± 0.056 | 1.92 ± 0.045 | 1.59 ± 0.032 | 0.669 ± 0.026 |
| UUCUCG | 0.24 ± 0.0079 | 2.01 ± 0.034 | 1.854 ± 0.0077 | 0.362 ± 0.0084 |
| AUGCCA | 0.0727 ± 0.02 | 1.91 ± 0.07 | 1.821 ± 0.018 | 0.158 ± 0.03 |
| GUGGAA | 0.0876 ± 0.0021 | 1.88 ± 0.031 | 1.61 ± 0.0033 | -0.0768 ± 0.16 |
| GUGGAU | 0.3032 ± 0.0022 | 1.917 ± 0.019 | 1.74 ± 0.05 | 0.467 ± 0.024 |
| UUGCCG | 0.171 ± 0.068 | 1.98 ± 0.039 | 1.83 ± 0.038 | 0.358 ± 0.006 |
| GUGAAG | 0.168 ± 0.0046 | 1.73 ± 0.0073 | 1.15 ± 0.072 | 0.591 ± 0.023 |
| GUGACG | 0.259 ± 0.081 | 1.828 ± 0.0026 | 1.37 ± 0.044 | 0.523 ± 0.031 |
| GUGACU | -0.666 ± 0.018 | 1.92 ± 0.02 | 1.88 ± 0.049 | -0.229 ± 0.049 |

| Variant | FACS-Seq fitted mean (log10) (hypoxanthine [1]) | normalized RNA/DNA level with ligand (log10) (hypoxanthine [2]) | normalized RNA/DNA level without ligand (log10) (hypoxanthine [3]) | FACS-Seq fitted mean (log10) (hypoxanthine [4]) |
| --- | --- | --- | --- | --- |
| AUCUUG | 0.269 ± 0.0029 | 1.846 ± 0.015 | 1.59 ± 0.039 | 0.48 ± 0.04 |
| AUGGCG | 0.211 ± 0.015 | 1.894 ± 0.018 | 1.38 ± 0.075 | 0.691 ± 0.042 |
| UUCUGG | 0.955 ± 0.026 | 1.931 ± 0.0039 | 1.8 ± 0.023 | 0.764 ± 0.068 |
| AUGGGA | 0.29 ± 0.013 | 1.89 ± 0.043 | 1.56 ± 0.08 | 0.592 ± 0.042 |
| GUGAGG | 0.174 ± 0.029 | 1.7 ± 0.039 | 1.2 ± 0.026 | 0.598 ± 0.051 |
| GUGAGC | 0.0785 ± 0.015 | 1.731 ± 0.017 | 1.15 ± 0.016 | 0.6585 ± 0.0046 |
| GUGAGA | -0.285 ± 0.036 | 1.86 ± 0.025 | 1.5664 ± 0.0011 | -0.146 ± 0.2 |
| CUGAGA | 0.665 ± 0.033 | 1.93 ± 0.036 | 1.77 ± 0.058 | 0.753 ± 0.0013 |
| CUGAGG | 0.424 ± 0.071 | 1.91 ± 0.03 | 1.58 ± 0.025 | 0.466 ± 0.031 |
| UUGAUA | 0.161 ± 0.022 | 1.93 ± 0.047 | 1.806 ± 0.01 | 0.277 ± 0.015 |
| GUGAUG | 0.204 ± 0.049 | 1.81 ± 0.038 | 1.34 ± 0.019 | 0.686 ± 0.037 |
| AUGCAA | 0.192 ± 0.045 | 1.87 ± 0.022 | 1.72 ± 0.038 | 0.221 ± 0.068 |
| AUGCAG | 0.251 ± 0.022 | 1.756 ± 0.01 | 1.29 ± 0.019 | 0.682 ± 0.039 |
| CUGCAG | 0.429 ± 0.068 | 1.96 ± 0.02 | 1.73 ± 0.066 | 0.677 ± 0.016 |
| CUGCGA | -0.182 ± 0.027 | 1.98 ± 0.052 | 1.822 ± 0.01 | -0.114 ± 0.022 |
| CUGCGC | 0.135 ± 0.0047 | 2 ± 0.033 | 1.92 ± 0.08 | 0.18 ± 0.029 |
| CUGACC | 0.127 ± 0.042 | 1.99 ± 0.037 | 1.91 ± 0.026 | 0.416 ± 0.008 |
| CUGACA | 0.453 ± 0.025 | 1.89 ± 0.0074 | 1.821 ± 0.017 | 0.522 ± 0.12 |
| AUGCGG | -0.0506 ± 0.036 | 1.752 ± 0.0084 | 1.31 ± 0.12 | 0.504 ± 0.014 |
| AUGCGA | 0.0429 ± 0.015 | 1.89 ± 0.076 | 1.556 ± 0.0057 | 0.395 ± 0.06 |
| AUGACG | 0.0397 ± 0.012 | 1.807 ± 0.0069 | 1.354 ± 0.011 | 0.3727 ± 0.0035 |
| AUGACA | 0.303 ± 0.11 | 1.909 ± 0.013 | 1.8 ± 0.021 | 0.344 ± 0.049 |
| GUGCGU | 0.221 ± 0.019 | 1.972 ± 0.018 | 1.71 ± 0.044 | 0.479 ± 0.04 |
| GUGCGG | 0.103 ± 0.016 | 1.88 ± 0.033 | 1.38 ± 0.081 | 0.585 ± 0.033 |

| Variant | FACS-Seq fitted mean (log10) (hypoxanthine [1]) | normalized RNA/DNA level with ligand (log10) (hypoxanthine [2]) | normalized RNA/DNA level without ligand (log10) (hypoxanthine [3]) | FACS-Seq fitted mean (log10) (hypoxanthine [4]) |
| --- | --- | --- | --- | --- |
| UUGGCG | 0.088 ± 0.024 | 2.01 ± 0.034 | 1.87 ± 0.037 | 0.648 ± 0.069 |
| GUCUCU | 0.359 ± 0.039 | 1.97 ± 0.039 | 1.98 ± 0.092 | 0.302 ± 0.052 |
| GUCUCG | 0.392 ± 0.059 | 1.94 ± 0.094 | 1.7 ± 0.022 | 0.575 ± 0.11 |
| AUGAGA | 0.392 ± 0.088 | 1.85 ± 0.062 | 1.451 ± 0.0036 | 0.697 ± 0.0095 |
| AUGAGG | -0.0108 ± 0.028 | 1.644 ± 0.0044 | 1.15 ± 0.056 | 0.252 ± 0.059 |
| UUGCUU | 0.227 ± 0.004 | 1.98 ± 0.042 | 1.94 ± 0.044 | 0.0746 ± 0.042 |
| GUGCCG | 0.6409 ± 0.0059 | 1.912 ± 0.0077 | 1.55 ± 0.025 | 0.557 ± 0.12 |
| GUGGCG | 0.283 ± 0.0056 | 1.94 ± 0.02 | 1.608 ± 0.011 | 0.342 ± 0.023 |
| AUGAUG | -0.144 ± 0.025 | 1.794 ± 0.0069 | 1.32 ± 0.027 | 0.458 ± 0.12 |
| AUGAUA | -0.373 ± 0.027 | 1.9 ± 0.036 | 1.736 ± 0.013 | -0.00691 ± 0.00025 |
| UUGAGG | 0.402 ± 0.054 | 1.98 ± 0.027 | 1.7199 ± 0.00097 | 0.578 ± 0.02 |
| UUGAGA | 0.452 ± 0.082 | 1.96 ± 0.015 | 1.53 ± 0.067 | 0.649 ± 0.057 |
| UUGAGC | 0.0741 ± 0.098 | 1.977 ± 0.003 | 1.89 ± 0.025 | 0.129 ± 0.018 |
| CUCUGC | -0.384 ± 0.044 | 1.892 ± 0.0033 | 1.882 ± 0.0062 | -0.335 ± 0.067 |
| UUCUAA | 0.391 ± 0.23 | 1.961 ± 0.018 | 1.85 ± 0.077 | -0.13 ± 0.28 |
| CUGAUA | 0.486 ± 0.026 | 1.877 ± 0.003 | 1.7 ± 0.055 | 0.601 ± 0.13 |
| AUGAAU | 0.418 ± 0.023 | 1.907 ± 0.01 | 1.66 ± 0.027 | 0.644 ± 0.066 |
| AUGAAA | 0.631 ± 0.058 | 1.87 ± 0.021 | 1.7 ± 0.033 | 0.625 ± 0.011 |
| AUGAAG | -0.113 ± 0.019 | 1.73 ± 0.031 | 1.13 ± 0.053 | 0.639 ± 0.0078 |
| AUGAAC | 0.618 ± 0.07 | 1.9 ± 0.025 | 1.73 ± 0.025 | 0.583 ± 0.02 |
| UUGCGG | -0.08 ± 0.07 | 1.99 ± 0.062 | 1.91 ± 0.044 | -0.606 ± 0.083 |
| UUGAAA | 0.426 ± 0.1 | 1.953 ± 0.0063 | 1.77 ± 0.044 | 0.614 ± 0.07 |
| UUGAAG | 0.35 ± 0.06 | 1.93 ± 0.077 | 1.64 ± 0.059 | 0.6894 ± 0.0024 |
| AUGCUA | 0.499 ± 0.086 | 1.966 ± 0.0068 | 1.788 ± 0.0045 | 0.706 ± 0.029 |
